# Results as given in publication PMC5718816.
# Target: IgG-CD4 fusion protein (human) (UniProt P01730)
# Assay: BLI
row,Substance,Kd
1,recombinant consensus gp120 of HIV-1 CRF01_AE,18.4 nM
2,recombinant gp120 of HIV-1 92UG037.8 (subtype A) (natural protein),2.56 nM
3,recombinant gp120 of HIV-1 93MW965.26 (subtype C) (natural protein),112 nM
4,recombinant gp120 of HIV-1 JR-FL (subtype B) (natural protein),6.4 nM
